Reference: patent US20120172293A1 (Takeda / Millennium, published 2012)
Non-standard residues stand in square brackets, D forms with d. No end group written: not given here. *: point of attachment. Tyr(3-F) = N[C@@H](Cc1ccc(O)c(F)c1)C(=O)O; Tyr(2-F) = N[C@@H](Cc1ccc(O)cc1F)C(=O)O; Ala(cPr) = N[C@@H](CC1CC1)C(=O)O; tBuAla = CC(C)(C)C[C@H](N)C(=O)O; 3Pal = N[C@@H](Cc1cccnc1)C(=O)O; 4Pal = N[C@@H](Cc1ccncc1)C(=O)O; Cha = N[C@@H](CC1CCCCC1)C(=O)O; Gly(cPr) = N[C@H](C(=O)O)C1CC1; dCha = N[C@H](CC1CCCCC1)C(=O)O; Isobutyryl = CC(C)C(=O)*; Abu = CC[C@H](N)C(=O)O; Aib = CC(C)(N)C(=O)O

B1: Isobutanoyl-[Abu26, Cha27,36, Pya(4)28, Aib31]-PYY(25-36) (peptide)
peptide: Isobutyryl-R[Abu][Cha][4Pal]NL[Aib]TRQR[Cha]-NH2
SMILES: CC[C@H](NC(=O)[C@H](CCCNC(=N)N)NC(=O)C(C)C)C(=O)N[C@@H](CC1CCCCC1)C(=O)N[C@@H](Cc1ccncc1)C(=O)N[C@@H](CC(N)=O)C(=O)N[C@@H](CC(C)C)C(=O)NC(C)(C)C(=O)N[C@H](C(=O)N[C@@H](CCCNC(=N)N)C(=O)N[C@@H](CCC(N)=O)C(=O)N[C@@H](CCCNC(=N)N)C(=O)N[C@@H](CC1CCCCC1)C(N)=O)[C@@H](C)O
B2: Isobutanoyl-[Abu26, Cha27,28,36, Abu30, Aib31]-PYY(25-36) (peptide)
peptide: Isobutyryl-R[Abu][Cha][Cha]N[Abu][Aib]TRQR[Cha]-NH2
SMILES: CC[C@H](NC(=O)[C@H](CCCNC(=N)N)NC(=O)C(C)C)C(=O)N[C@@H](CC1CCCCC1)C(=O)N[C@@H](CC1CCCCC1)C(=O)N[C@@H](CC(N)=O)C(=O)N[C@@H](CC)C(=O)NC(C)(C)C(=O)N[C@H](C(=O)N[C@@H](CCCNC(=N)N)C(=O)N[C@@H](CCC(N)=O)C(=O)N[C@@H](CCCNC(=N)N)C(=O)N[C@@H](CC1CCCCC1)C(N)=O)[C@@H](C)O
B3: Isobutanoyl-[Abu26, Cha27,36, Gly(cPr)28, Aib31]-PYY(25-36) (peptide)
peptide: Isobutyryl-R[Abu][Cha][Gly(cPr)]NL[Aib]TRQR[Cha]-NH2
SMILES: CC[C@H](NC(=O)[C@H](CCCNC(=N)N)NC(=O)C(C)C)C(=O)N[C@@H](CC1CCCCC1)C(=O)N[C@H](C(=O)N[C@@H](CC(N)=O)C(=O)N[C@@H](CC(C)C)C(=O)NC(C)(C)C(=O)N[C@H](C(=O)N[C@@H](CCCNC(=N)N)C(=O)N[C@@H](CCC(N)=O)C(=O)N[C@@H](CCCNC(=N)N)C(=O)N[C@@H](CC1CCCCC1)C(N)=O)[C@@H](C)O)C1CC1
B4: Ac-[D-Cha24, Abu26, Cha27,28,36, Aib31]-PYY(24-36) (peptide)
peptide: Ac-[dCha]R[Abu][Cha][Cha]NL[Aib]TRQR[Cha]-NH2
SMILES: CC[C@H](NC(=O)[C@H](CCCNC(=N)N)NC(=O)[C@@H](CC1CCCCC1)NC(C)=O)C(=O)N[C@@H](CC1CCCCC1)C(=O)N[C@@H](CC1CCCCC1)C(=O)N[C@@H](CC(N)=O)C(=O)N[C@@H](CC(C)C)C(=O)NC(C)(C)C(=O)N[C@H](C(=O)N[C@@H](CCCNC(=N)N)C(=O)N[C@@H](CCC(N)=O)C(=O)N[C@@H](CCCNC(=N)N)C(=O)N[C@@H](CC1CCCCC1)C(N)=O)[C@@H](C)O
B5: Isobutanoyl-[Abu26, Cha27,28,36, His30, Aib31]-PYY(25-36) (peptide)
peptide: Isobutyryl-R[Abu][Cha][Cha]NH[Aib]TRQR[Cha]-NH2
SMILES: CC[C@H](NC(=O)[C@H](CCCNC(=N)N)NC(=O)C(C)C)C(=O)N[C@@H](CC1CCCCC1)C(=O)N[C@@H](CC1CCCCC1)C(=O)N[C@@H](CC(N)=O)C(=O)N[C@@H](Cc1c[nH]cn1)C(=O)NC(C)(C)C(=O)N[C@H](C(=O)N[C@@H](CCCNC(=N)N)C(=O)N[C@@H](CCC(N)=O)C(=O)N[C@@H](CCCNC(=N)N)C(=O)N[C@@H](CC1CCCCC1)C(N)=O)[C@@H](C)O
B6: Isobutanoyl-[Abu26, Cha27,28,36, Leu(Me)30, Aib31]-PYY(25-36) (peptide)
peptide: Isobutyryl-R[Abu][Cha][Cha]N[tBuAla][Aib]TRQR[Cha]-NH2
SMILES: CC[C@H](NC(=O)[C@H](CCCNC(=N)N)NC(=O)C(C)C)C(=O)N[C@@H](CC1CCCCC1)C(=O)N[C@@H](CC1CCCCC1)C(=O)N[C@@H](CC(N)=O)C(=O)N[C@@H](CC(C)(C)C)C(=O)NC(C)(C)C(=O)N[C@H](C(=O)N[C@@H](CCCNC(=N)N)C(=O)N[C@@H](CCC(N)=O)C(=O)N[C@@H](CCCNC(=N)N)C(=O)N[C@@H](CC1CCCCC1)C(N)=O)[C@@H](C)O
B7: Isobutanoyl-[Abu26, Cha27,28, Aib31, Tyr(2F)36]-PYY(25-36) (peptide)
peptide: Isobutyryl-R[Abu][Cha][Cha]NL[Aib]TRQR[Tyr(2-F)]-NH2
SMILES: CC[C@H](NC(=O)[C@H](CCCNC(=N)N)NC(=O)C(C)C)C(=O)N[C@@H](CC1CCCCC1)C(=O)N[C@@H](CC1CCCCC1)C(=O)N[C@@H](CC(N)=O)C(=O)N[C@@H](CC(C)C)C(=O)NC(C)(C)C(=O)N[C@H](C(=O)N[C@@H](CCCNC(=N)N)C(=O)N[C@@H](CCC(N)=O)C(=O)N[C@@H](CCCNC(=N)N)C(=O)N[C@@H](Cc1ccc(O)cc1F)C(N)=O)[C@@H](C)O
B8: Isobutanoyl-[Abu26, Cha27,28,36, Ser30, Aib31]-PYY(25-36) (peptide)
peptide: Isobutyryl-R[Abu][Cha][Cha]NS[Aib]TRQR[Cha]-NH2
SMILES: CC[C@H](NC(=O)[C@H](CCCNC(=N)N)NC(=O)C(C)C)C(=O)N[C@@H](CC1CCCCC1)C(=O)N[C@@H](CC1CCCCC1)C(=O)N[C@@H](CC(N)=O)C(=O)N[C@@H](CO)C(=O)NC(C)(C)C(=O)N[C@H](C(=O)N[C@@H](CCCNC(=N)N)C(=O)N[C@@H](CCC(N)=O)C(=O)N[C@@H](CCCNC(=N)N)C(=O)N[C@@H](CC1CCCCC1)C(N)=O)[C@@H](C)O
B9: Isobutanoyl-[Abu26, Cha27,28,36, Ala(cPr)30, Aib31]-PYY(25-36) (peptide)
peptide: Isobutyryl-R[Abu][Cha][Cha]N[Ala(cPr)][Aib]TRQR[Cha]-NH2
SMILES: CC[C@H](NC(=O)[C@H](CCCNC(=N)N)NC(=O)C(C)C)C(=O)N[C@@H](CC1CCCCC1)C(=O)N[C@@H](CC1CCCCC1)C(=O)N[C@@H](CC(N)=O)C(=O)N[C@@H](CC1CC1)C(=O)NC(C)(C)C(=O)N[C@H](C(=O)N[C@@H](CCCNC(=N)N)C(=O)N[C@@H](CCC(N)=O)C(=O)N[C@@H](CCCNC(=N)N)C(=O)N[C@@H](CC1CCCCC1)C(N)=O)[C@@H](C)O
B10: Isobutanoyl-[Abu26,27, Cha28,36, Aib31]-PYY(25-36) (peptide)
peptide: Isobutyryl-R[Abu][Abu][Cha]NL[Aib]TRQR[Cha]-NH2
SMILES: CC[C@H](NC(=O)[C@H](CCCNC(=N)N)NC(=O)C(C)C)C(=O)N[C@@H](CC)C(=O)N[C@@H](CC1CCCCC1)C(=O)N[C@@H](CC(N)=O)C(=O)N[C@@H](CC(C)C)C(=O)NC(C)(C)C(=O)N[C@H](C(=O)N[C@@H](CCCNC(=N)N)C(=O)N[C@@H](CCC(N)=O)C(=O)N[C@@H](CCCNC(=N)N)C(=O)N[C@@H](CC1CCCCC1)C(N)=O)[C@@H](C)O
B11: Isobutanoyl-[Abu26, Cha27,28, Aib31, Tyr(3F)36]-PYY(25-36) (peptide)
peptide: Isobutyryl-R[Abu][Cha][Cha]NL[Aib]TRQR[Tyr(3-F)]-NH2
SMILES: CC[C@H](NC(=O)[C@H](CCCNC(=N)N)NC(=O)C(C)C)C(=O)N[C@@H](CC1CCCCC1)C(=O)N[C@@H](CC1CCCCC1)C(=O)N[C@@H](CC(N)=O)C(=O)N[C@@H](CC(C)C)C(=O)NC(C)(C)C(=O)N[C@H](C(=O)N[C@@H](CCCNC(=N)N)C(=O)N[C@@H](CCC(N)=O)C(=O)N[C@@H](CCCNC(=N)N)C(=O)N[C@@H](Cc1ccc(O)c(F)c1)C(N)=O)[C@@H](C)O
B12: [D-Ser23, Abu26, Cha27,28,36, Aib31]-PYY(23-36) (peptide)
peptide: [dS]LR[Abu][Cha][Cha]NL[Aib]TRQR[Cha]-NH2
modifications: N-terminus assumed
SMILES: CC[C@H](NC(=O)[C@H](CCCNC(=N)N)NC(=O)[C@H](CC(C)C)NC(=O)[C@H](N)CO)C(=O)N[C@@H](CC1CCCCC1)C(=O)N[C@@H](CC1CCCCC1)C(=O)N[C@@H](CC(N)=O)C(=O)N[C@@H](CC(C)C)C(=O)NC(C)(C)C(=O)N[C@H](C(=O)N[C@@H](CCCNC(=N)N)C(=O)N[C@@H](CCC(N)=O)C(=O)N[C@@H](CCCNC(=N)N)C(=O)N[C@@H](CC1CCCCC1)C(N)=O)[C@@H](C)O
B13: Isobutanoyl-[Abu26, Cha27,28,36, Gln30, Aib31]-PYY(25-36) (peptide)
peptide: Isobutyryl-R[Abu][Cha][Cha]NQ[Aib]TRQR[Cha]-NH2
SMILES: CC[C@H](NC(=O)[C@H](CCCNC(=N)N)NC(=O)C(C)C)C(=O)N[C@@H](CC1CCCCC1)C(=O)N[C@@H](CC1CCCCC1)C(=O)N[C@@H](CC(N)=O)C(=O)N[C@@H](CCC(N)=O)C(=O)NC(C)(C)C(=O)N[C@H](C(=O)N[C@@H](CCCNC(=N)N)C(=O)N[C@@H](CCC(N)=O)C(=O)N[C@@H](CCCNC(=N)N)C(=O)N[C@@H](CC1CCCCC1)C(N)=O)[C@@H](C)O
B14: Isobutanoyl-[Abu26, Cha27,28,36, Gly(cPr)31]-PYY(25-36) (peptide)
peptide: Isobutyryl-R[Abu][Cha][Cha]NL[Gly(cPr)]TRQR[Cha]-NH2
SMILES: CC[C@H](NC(=O)[C@H](CCCNC(=N)N)NC(=O)C(C)C)C(=O)N[C@@H](CC1CCCCC1)C(=O)N[C@@H](CC1CCCCC1)C(=O)N[C@@H](CC(N)=O)C(=O)N[C@@H](CC(C)C)C(=O)N[C@H](C(=O)N[C@H](C(=O)N[C@@H](CCCNC(=N)N)C(=O)N[C@@H](CCC(N)=O)C(=O)N[C@@H](CCCNC(=N)N)C(=O)N[C@@H](CC1CCCCC1)C(N)=O)[C@@H](C)O)C1CC1
B15: Isobutanoyl-[Abu26, Cha27,28,36, Pya(3)31]-PYY(25-36) (peptide)
peptide: Isobutyryl-R[Abu][Cha][Cha]NL[3Pal]TRQR[Cha]-NH2
SMILES: CC[C@H](NC(=O)[C@H](CCCNC(=N)N)NC(=O)C(C)C)C(=O)N[C@@H](CC1CCCCC1)C(=O)N[C@@H](CC1CCCCC1)C(=O)N[C@@H](CC(N)=O)C(=O)N[C@@H](CC(C)C)C(=O)N[C@@H](Cc1cccnc1)C(=O)N[C@H](C(=O)N[C@@H](CCCNC(=N)N)C(=O)N[C@@H](CCC(N)=O)C(=O)N[C@@H](CCCNC(=N)N)C(=O)N[C@@H](CC1CCCCC1)C(N)=O)[C@@H](C)O

Target: human Y2 receptor (human) (UniProt P49146)
Sequence (P49146 whole entry): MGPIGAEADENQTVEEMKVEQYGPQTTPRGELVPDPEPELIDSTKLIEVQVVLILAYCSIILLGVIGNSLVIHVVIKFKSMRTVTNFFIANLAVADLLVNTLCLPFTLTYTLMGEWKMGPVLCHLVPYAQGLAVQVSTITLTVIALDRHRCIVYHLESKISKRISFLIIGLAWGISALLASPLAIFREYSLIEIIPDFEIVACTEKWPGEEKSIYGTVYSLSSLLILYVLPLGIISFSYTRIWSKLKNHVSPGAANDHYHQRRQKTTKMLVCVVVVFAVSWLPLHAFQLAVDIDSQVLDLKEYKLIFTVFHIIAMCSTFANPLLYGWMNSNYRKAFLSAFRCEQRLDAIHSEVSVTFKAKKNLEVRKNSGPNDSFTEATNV
Experiment: cell-based or functional assay

Row | GBA EC50 Ratio (vs PYY(3-36)), [35S]GTPγS | Binder
1 | 22 | B1
2 | 21 | B2
3 | 41 | B3
4 | 13 | B4
5 | 20 | B5
6 | 26 | B6
7 | 11 | B7
8 | 28 | B8
9 | 12 | B9
10 | 37 | B10
11 | 20 | B11
12 | 11 | B12
13 | 22 | B13
14 | 16 | B14
15 | 19 | B15

Target: human Y2 receptor (human) (UniProt P49146)
Experiment: RBA: [125I]-PYY displacement, hY2R/CHO membranes

Row | IC50 Ratio (vs PYY(3-36)) | Binder
16 | 26 | B1
17 | 20 | B2
18 | 52 | B3
19 | 15 | B4
20 | 22 | B5
21 | 51 | B6
22 | 19 | B7
23 | 26 | B8
24 | 17 | B9
25 | 31 | B10
26 | 26 | B11
27 | 15 | B12
28 | 19 | B13
29 | 25 | B14
30 | 25 | B15
